Measured values taken from article PMC9037526.

Target: Vip3Aa protoxin (proVip3Aa, without Flag tag) (Bacillus thuringiensis)
Test: MST; labeled proVip3Aa (333 nM) or labeled actVip3Aa (216 nM) kept constant, GST-PHB2 titrated from 0.2 nM to 7 μM; PBS pH 7.5; Monolith NT.115 Pico

For “GST-PHB2 (prohibitin 2 of Spodoptera frugiperda fused to glutathione-S-transferase) (natural protein)”, the Kd was 45.9 nM.
